Results from the supplement of paper PMC10567573.

B1: PLAGL1 (parent)
chain: CKDFLCQFCAQRFGRKDHLTRHTK
B2: TIA1 (parent)
chain: TYECRCIGEEKEMWNFGEKYARF

Variants of: B1
Assay: protein stability index of a GFP-peptide fusion (GPS, HEK-293T) (PSI 1-6); higher = more stable
Conditions: c terminus: a fixed tail appended
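Note: lentivirally expressed fusions sorted by FACS into six bins by GFP to DsRed ratio, PSI derived from sequencing read proportions per bin multiplied by bin number.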

Protein stability index: each site, then its substitutions
F8: S 2.19 | N 2.82 | I 1.93 | D 3.12 | H 2.87 | C 3.64 | K 2.69 | A 2.94 | G 2.32 | Y 1.77 | W 1.6 | L 2.89 | V 2.18
H18: I 2.07 | T 2.25 | V 2.59 | R 2.35 | C 2.6 | W 1.94 | M 1.64 | K 2.25 | S 1.82 | D 1.68 | F 1.49 | G 1.95
C6: A 2.18 | F 1.78 | W 1.78 | D 2.17 | S 1.58 | E 2.63 | Y 2.1 | Q 2.34 | T 2.04 | G 1.84 | H 2.25 | R 1.41
R15: Q 1.74 | L 2.06 | W 1.61 | A 1.82 | N 1.83 | Y 2.38 | S 1.73 | G 2.36 | E 2.52 | T 1.93 | K 2.52 | I 1.91 | H 1.85 | D 2.24 | P 1.66 | M 1.73
R21: I 1.82 | V 1.59 | E 2.48 | Y 1.85 | K 2.27 | N 2.53 | H 1.87 | P 2.1 | G 2.02
G14: S 2.72 | V 1.99 | K 2 | R 2.12 | C 2.37 | H 2.13 | T 2.09 | E 2.78 | W 1.77 | L 1.96 | D 2.14 | P 2.46
D3: C 1.31 | R 1.81 | F 3.19 | Q 2.76 | I 2.01 | P 1.73 | N 1.56 | L 1.86 | T 1.77 | M 1.38 | K 1.48 | A 1.57 | W 1.73
F13: T 2.23 | L 2.44 | M 2.88 | N 2.35 | R 2.54 | K 3.02 | I 2.02 | H 2.31 | E 2.86 | W 2.33 | A 1.91 | S 3.21 | P 2.35
K2: P 2.52 | H 2.46 | L 1.85 | S 1.74 | R 2.74 | V 1.53 | D 2.02 | E 2.13 | Q 2.08 | F 2.35 | G 2.43 | C 2.44 | M 1.46
L5: W 1.93 | I 1.69 | Q 2.01 | T 1.81 | P 2.87 | C 1.41 | G 2.23 | F 2.56 | D 2.18 | Y 1.82
Q11: M 2.22 | K 2.02 | F 1.82 | L 2.29 | H 1.67 | S 3.17 | T 1.75 | I 1.82 | V 2.04 | N 2.01 | A 1.84 | Y 1.51 | C 1.85
D17: N 2.04 | Q 1.92 | A 2.28 | L 2.03 | S 2.12 | R 2.37 | F 2.08 | Y 1.7 | H 1.85 | W 1.35 | P 2.4 | E 2.14 | T 2.44
T23: K 2.44 | H 2.02 | Q 3.45 | I 2.4 | E 1.68 | M 2.04 | P 1.76 | N 1.81 | S 2.38 | V 1.87
Q7: D 2.2 | V 2.02 | N 1.74 | P 2.23 | F 1.74 | W 2.57 | M 2.29 | L 1.29 | H 1.96 | T 2.35 | S 1.76 | Y 2.06 | G 2.09 | R 2.08
C9: N 2.58 | D 2.11 | P 3.17 | F 1.11 | G 2.14 | I 2.56 | H 2.11 | Y 1.47 | Q 2.72 | E 2 | K 2.42 | W 2 | T 1.93 | V 2.46 | S 2.03
K24: L 1.49 | S 2.02 | A 2.73 | V 1.67 | I 2.08 | H 2.41 | W 2.03 | M 1.74 | F 2.4 | P 2.21 | N 1.9 | D 1.73 | Y 1.56 | E 2.3
F4: P 2.37 | N 2.64 | I 1.54 | T 2.35 | Y 1.36 | R 2.4 | L 1.41 | C 1.97 | Q 2.34 | A 2.05
H22: R 2.15 | S 2.04 | I 1.76 | F 1.65 | K 1.68 | L 1.85 | Y 2.7 | M 2.12 | C 2.4 | V 2.81 | P 2.3 | E 1.8 | D 2.09
K16: I 2.37 | H 2.39 | C 2.53 | L 2.49 | F 2.17 | G 2.15 | A 2.67 | Y 1.86 | D 2.35 | M 1.68 | Q 2.62 | R 2.44
R12: I 2.6 | L 1.47 | C 2.86 | H 2.38 | N 2.22 | S 2.16 | V 2.33 | M 1.94 | K 3.04 | A 1.97 | Q 1.23 | Y 2
A10: H 1.9 | T 1.96 | S 2.24 | W 1.67 | C 2.19 | R 2.14 | L 1.79 | Q 1.44 | V 2.16 | N 1.96 | G 1.79 | Y 2.16 | E 1.69 | K 2.48
T20: E 2.29 | A 2.25 | C 3.02 | W 1.47 | F 1.83 | S 2.17 | P 1.82 | H 1.96 | G 2.17 | D 1.72 | K 2.35
L19: N 1.91 | S 2.13 | A 2.54 | T 3.32 | D 3.71 | C 2.25 | Q 2.48 | P 2.02
C1: V 1.67 | N 1.72 | W 1.84 | A 3.04 | G 1.93 | F 1.64 | I 2.46 | S 2.7 | R 2.04 | T 1.76 | M 1.53

Variants of: B2
Assay: as above
Conditions: c terminus: native

Protein stability index: each site, then its substitutions
E3: D 3.24 | A 2.23 | G 2.14 | C 3.65
T1: N 3.21 | D 3.71 | R 1.68 | G 2.27 | S 2.51 | P 3.63 | I 2.19 | L 1.7 | V 1.8 | K 1.83 | M 3.02 | W 1.68 | C 1.23 | H 2.31 | E 4.38 | Q 2.35 | Y 1.63 | A 2.54
Y2: Q 3.97 | C 3.3 | N 3.75 | H 2.44 | E 4.79 | T 4.18 | M 2.88 | W 4.98 | K 3.51 | R 3.07 | P 3.99 | D 4.27 | A 2.94 | I 3.31 | S 3.2 | V 3.16 | L 3.66 | G 4.38 | F 4.21
